Measured values: patent publication US20020157126A1 (published 2002)

Legend:
[1] = target: T1, myostatin mature C-terminal dimer (purified from conditioned medium of CHO cells) (UniProt O08689 268-376, limits assumed, radio-iodinated (chloramine T method) when used as the labeled ligand); test: inhibition of labeled myostatin binding to Act RIIB-transfected COS-7 cells, 4 °C; reference is the Ki of follistatin
T1 construct: mature; also called GDF-8; mature C-terminal peptide
T1 sequence (looked up): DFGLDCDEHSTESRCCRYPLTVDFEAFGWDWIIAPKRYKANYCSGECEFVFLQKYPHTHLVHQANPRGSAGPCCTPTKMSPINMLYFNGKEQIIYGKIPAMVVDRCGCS

[2] = target: GDF-8 receptor (cell surface binding proteins) on L6 myoblasts; test: receptor-ligand binding assay with I-125 labeled GDF-8 on myoblast cells
[3] = target: T1, myostatin mature C-terminal dimer …; test: inhibition of labeled myostatin binding to Act RIIB-transfected COS-7 cells, 4 °C
Method: Receptor binding. Purified myostatin was radioiodinated using the chloramine T method (Frolik, C. A., Wakefield, L. M., Smith, D. M. & Sporn, M. B. (1984) J Biol Chem 259, 10995-11000). COS-7 cells grown in 6 or 12 well plates were transfected with 1-2 μg pCMV5 or pCMV5/receptor construct using lipofectamine (Gibco, Rockville, Md.). Crosslinking experiments were carried out 2 days post transfection as described (Franzén, P., ten Dijke, P., Ichijo, H., Yamashita, H., Schultz, P., Heldin, C.-H. & Miyazono, K. (1993) Cell 75, 681-692). For quantitative receptor binding assays, cell monolayers were washed twice with PBS containing 1 mg/ml BSA and incubated with labeled myostatin in the presence or absence of various concentrations of unlabeled myostatin, pro peptide, or follistatin at 4° C. Cells were then washed 3 times with the same buffer, lysed in 0.5N NaOH, and counted in a gamma counter. Specific binding was calculated as the difference in bound myostatin between cells transfected with Act RIIB and cells transfected with vector.
The effect of the pro peptide and follistatin in vitro was then studied. Both the myostatin pro peptide and follistatin were capable of blocking the binding of the C-terminal dimer to Act RIIB. […]

## myostatin prodomain peptide (purified from CHO cell conditioned medium, HPLC fractions 35-37) (from UniProt O08689 25-267)
[1]
  fold Ki relative to follistatin: 50 fold

## recombinant human GDF-8 (rhGDF-8) homodimer (from UniProt O14793 267-374) (ligand)
[2]
  Kd: 370 pM

B1: follistatin (other, UniProt P19883-2 30-317, looked up)
chain: GNCWLRQAKNGRCQVLYKTELSKEECCSTGRLSTSWTEEDVNDNTLFKWMIFNGGAPNCIPCKETCENVDCGPGKKCRMNKKNKPRCVCAPDCSNITWKGPVCGLDGKTYRNECALLKARCKEQPELEVQYQGRCKKTCRDVFCPGSSTCVVDQTNNAYCVTCNRICPEPASSEQYLCGNDGVTYSSACHLRKATCLLGRSIGLAYEGKCIKAKSCEDIQCTGGKKCLWDFKVGRGRCSLCDELCPDSKSDEPVCASDNATYASECAMKEAACSSGVLLEVKHSGSCN
[3]
  Ki: ~470 pM
